assay: soluble on expression in E. coli; label from the status in PepcDB or PDB records

Sequence | soluble on expression in E. coli
MAQSKHGLTKEMTMKYRMEGCVDGHKFVITGEGIGYPFKGKQAINLCVVEGGPLPFAEDILSAAFNYGNRVFTEYPQDIVDYFKNSCPAGYTWDRSFLFEDGAVCICNADITVSVEENCMYHESKFYGVNFPADGPVMKKMTDNWEPSCEKIIPVPKQGILKGDVSMYLLLKDGGRLRCQFDTVYKAKSVPRKMPDWHFIQHKLTREDRSDAKNQKWHLTEHAIASGSALP | soluble
MKLLDHKLSLLEITDEEKSDEIILNLSRNVKKDLEDIVVANVSMENVLVMNIKVPPTLNKQNAVEYATMEISRNLGILPEQLVVAPLDIRGGEGLFFVSKVDQVKSFVTDLMKKEFPETDVVIPDIVKYLEVFEFYFGKRLKGTS | soluble
MTVEWLAEQLKEHNIQLTETQKQQFQTYYRLLVEWNEKMNLTSITDEHDVYLKHFYDSIAPSFYFDFNQPISICDVGAGAGFPSIPLKIMFPQLKVTIVDSLNKRIQFLNHLASELQLQDVSFIHDRAETFGKGVYRESYDVVTARAVARLSVLSELCLPLVKKGGQFVALKSSKGEEELEEAKFAISVLGGNVTETHTFELPEDAGERQMFIIDKKRQTPKKYPRKPGTPNKTPLLEK | not soluble
MQCELCGKEVKNIIKTRVEGVEMNVCEACAKFGMSPKGYSRKPRAVFKNETKQKQAKRPRKDMFDNLKTLVEDYGSLVKEAREKKNMTLEELSRAVGIKESLIHKIERNEIEPEEKYVKILEKALGISFYEEGDLNYETSNEDSEFTLGDFIKVKKRK | not soluble
MGSDKIHHHHHHMIRLDNISKQNGHQILFIEASMGVQKGEKVGLVGPNGAGKTTLFRMITGQEQPDDGIVSIDAGMRIGYFSQDVGEMSGQSAVAAVMDGVGPVSALAAEMATLEAAMVDPDQADQLDAVMERYGEVLERFQELDGYALEARAREVLAGLSFSQERMDADVGLLSGGWKMRVALARILLMRPDGMLLDEPSNHLDLESLIWLESFLKNYDGALLMTSHDRAFMNRIIGKVIEIDAGSLITYSGDLDFYDQQRALSEAQRQAQYERQQAMLAKEIKFIEKFKARASHAAQVQSRVKKLDKIERVEAPRRRQTVQFEFQSPPRSGEDVISLRGVHKGYGERPIYQDLDFLVRRKERWAVLGANGAGKSTLLKLVAGDTKPDQGVVNIGASVKMGYFAQHSMDLLDGEETIFESLERSFPQAGQGALRTLAGCFGFSGDDVEKPCRVLSGGEKARLVMAKMLFDPPNLLVLDEPTNHLDMVTKEMLVASLADFEGTMLFVSHDRHFLAALSNRVLELTPEGIHQYGGGYTEYVARTGQEAPGLHPGG | not soluble
SVISESMDILFRIRGGLDLAFQLATPNEIFLKKALKHVLSDLSTKLSSNALVFRICHSSVYIWPSSDINTIPGELTDASACKTILRFIQFEPEEDIKRKFMRKKDKKLSDMHQIVNIDLMLEMSTSLAAVTPIIERESGGHHYVNMTLPVDAVISVAPEETWGKVRKLLVDAIHNQLTDMEKCILKYMKGTSIVVPEPLHFLLPGKKNLVTISYPSGIPDGQLQAYRKELHDLFNLPHDRPYFKRSNAYHFPDEPYKDGYIRNPHTYLNPPNMETGMIYVVQGIYGYHHYMQDRIDDNGWGCAYRSLQTICSWFKHQGYTERSIPTHREIQQALVDAGDKPATFVGSRQWIGSIEVQLVLNQLIGITSKILFVSQGSEIASQGRELANHFQSEGTPVMIGGGVLAHTILGVAWNEITGQIKFLILDPHYTGAEDLQVILEKGWCGWKGPDFWNKDAYYNLCLPQRPNMI | not soluble
MGSDKIHHHHHHCPVNWVEFGGSCYWFSRDGLTWAEADQYCQLENAHLLVINSREEQDFVVKHRSQFHIWIGLTDRDGSWKWVDGTDYRSNYRNWAFTQPDNWQGHEQGGGEDCAEILSDGHWNDNFCQQVNRWVCEKRR | not soluble
MSLKIKLETYYVCKGELAMNPEVSQLLEQIELRKDELLELTKTLIRFETPAPPARNTNEAQQFVADFLRKRNFSVDKWDVYPNDPNVVGVKKGIESETHKSLIINGHMDVAEVSADEAWEKNPFEPFIKDGWLVGRGAADMKGGLAGALFAIQLLEEAGIELPGDLIFQSVIGEEVGEAGTLQCCRRGYDADFAVVVDTSDLHMQGQGGVITGWITVKSPQTFHDATRRQMIHAGGRLFGASAIEKMMKIVQSLQELERHWAVMKTYEGYPSGTTTINPAVIEGGRHAAFIADECRLWITVHFYPNETHEQIIKEIEEYIGKVAAADPWLSENPPQFKWGGESMIVDRGEIFPSLEIDSEHAAVKTLSSVHESVLSKHAILDMSATVTDGGWFSEFHIPAVIYGPGTLEEAHSINEKVEVEQLIEFTKVITAFIYEWCHTKEGHHHHHH | soluble
MAEPVRLGRKRPLPVCPNPLFVRWLTEWRDEAASRGRHTRFVFQKALRSLQRYPLPLRSGKEAKILQHFGDRLCRMLDEKLKQHLASGGD | soluble

Source: the DeepSol protein solubility set
